Earlier results as cited in article PMC5116031.

Target: BECN1 CCD (Rattus norvegicus) (UniProt Q91XJ1)

Chain of BECN1 CCD (Q91XJ1 174-266): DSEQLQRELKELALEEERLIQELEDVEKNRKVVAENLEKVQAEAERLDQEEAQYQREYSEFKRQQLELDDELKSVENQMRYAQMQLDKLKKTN

Kd: 89 µM
Substance: BECN1 CCD (from UniProt Q91XJ1)
